Values joined by “and” are separate entries in the source; they are usually repeats but may differ in a detail not shown here. Identical values can stand only once.
Key:
Format in all cases: in vivo, mouse
[1] = system: xenografted MDA-MB-468 human breast adenocarcinoma tumors; experiment: MDA-MB-468 xenograft efficacy in female nude mice (Example 4)
Description: The anti-tumor activity of DP002-HC4LC5-ADC was evaluated as a single agent in female nude mice bearing xenografted MDA-MB-468 human breast adenocarcinoma tumors.
(§1) Each mouse was inoculated with 5×10^6 MDA-MB-468 tumor cells (in 0.1 mL, 1:1 with Matrigel) at the right flank by subcutaneous administration under sterile conditions. When the tumors reached a volume of ˜150 mm^3, mice were randomized into one of 7 treatment groups (6 mice per group), as outlined in Table 12, and treatments began. All doses of DP002-HC4LC5-ADC were administered by intravenous injection via tail vein injection.
(§2) Tumor size and animal body weight were measured twice per week. Clinical signs were recorded daily. Tumors were measured using a caliper in two dimensions (i.e., length (a) and width (b)), and tumor volumes were estimated from measurements of the two diameters of the individual tumors as follows: Tumor Volume (mm^3)=(a×b^2)/2.
(§3) Average tumor growth curves for each treatment group were plotted with the observation time on the X-axis, and corresponding tumor volume (geometric mean) on the Y-axis. A two-tailed t-test was used to analyze the statistical significance of any differences between the treatment groups and the control group. Tumor Growth Inhibition (TGI) was calculated after each tumor volume measurement according to the formula: % TGI=(TVcn−TVtn)/TVcn×100, where TVtn and TVcn are the mean tumor Volume of treated and control groups, respectively. Body weight change (CBW %) was calculated after each body weight measurement according to the formula: CBW %=(BWn−BW0)/BW0×100, where BWn is the body weight at day n and BW0 is the body weight at day 0 respectively.

[2] = Side effects in xenografted NOD/SCID mice (Example 3); conditions: 1 mg/kg or 4 mg/kg intravenous, single dose on Day 0
Description: The efficacies of two anti-TROP2-MMAE antibody drug conjugates, DP002-HC1LC5-ADC (DAR ˜2) and DP002-HC4LC5-ADC (DAR ˜1.6-2.3), in inhibiting tumor growth in mice bearing human MDA-MB-468 breast adenocarcinoma tumor xenografts were tested. DP002-HC1LC5-ADC comprises an anti-TROP antibody that comprises HC 1 (SEQ ID NO: 52) and LC5 (SEQ ID NO: 62); DP002-HC4LC5-ADC comprises an anti-TROP antibody that comprises HC 4 (SEQ ID NO: 44) and LC5 (SEQ ID NO: 62). Briefly, 48 NOD/SCID mice (female, 6-8 weeks of age) were implanted with 0.1 ml MDA-MB-468 cells (lx 10^7 cell/ml). When the tumors sizes reached above 181 mm^3 (34 days after tumor inoculation), the mice were sorted randomly into 7 groups (6 mice/group) and treated according to the schedule provided in Table 10 below: […]

[3] = Body weight and tolerability in xenografted nude mice (Example 4)
Description: as §1, §2, §3

[4] = 2 mg/kg IV once on Day 0, n = 6 unless specified
[5] = 4 mg/kg IV once on Day 0, n = 6 unless specified
[6] = 4 mg/kg IV once on Day 0, outlier animal excluded
[7] = 2 mg/kg IV Day 0 + 1 mg/kg IV Days 7, 14

B1: DP002-HC4LC5-ADC: anti-TROP2-MMAE antibody drug conjugate (DAR ~1.6-2.3) of antibody with HC4 and LC5 (SEQ ID NO: 62) (conjugate)
VH: EVQLVQSGAEVKKPGESLKISCKGSGYTFTDYSINWVRQMPGKGLEWMGVISTYYGDASYNQKFKGQVTISADKSISTAYLQWSSLKASDTAMYYCARYGDGYNQFDYWGQGTLVTVSS
light: DIQMTQSPSSLSASVGDRVTITCRVSESVDSYGNNFMHWYQQKPGKAPKLLIYRASNLESGVPSRFSGSGSGTDFTFTISSLQPEDIATYYCQQSYEDPYTFGGGTKLEIKRTVAAPSVFIFPPSDEQLKSGTASVVCLLNNFYPREAKVQWKVDNALQSGNSQESVTEQDSKDSTYSLSSTLTLSKADYEKHKVYACEVTHQGLSSPVTKSFNRGEC
modifications: MMAE conjugate
[1]; [4]
  Number of mice demonstrating full tumor regression at Week 8 following first dose: 2
  Number of mice demonstrating full tumor regression at Week 9 following first dose: 2
  Number of mice demonstrating full tumor regression at Week 10 following first dose: 2
  Number of mice demonstrating full tumor regression at Week 11 following first dose: 2/6 and 2
  Number of mice demonstrating full tumor regression at Week 12 following first dose: 1 (n = 5)
[1]; 4 mg/kg IV as a single dose on Day 0
  % of mice with tumor regression at the end of the study: 66%
[1]; 4 mg/kg IV once on Day 0
  % TGI Day 70: 78.49%
  Tumor Volume (mm^3, Mean ± SEM) Day 70: 293.26 mm^3 and 293.26 ± 288.40** mm^3
  Tumor Weight (g, Mean ± SEM) Day 84: 0.346 ± 0.341 g
[1]; [5]
  Number of mice demonstrating full tumor regression at Week 4 following first dose: 4
  Number of mice demonstrating full tumor regression at Week 5 following first dose: 4
  Number of mice demonstrating full tumor regression at Week 6 following first dose: 4
  Number of mice demonstrating full tumor regression at Week 7 following first dose: 4
  Number of mice demonstrating full tumor regression at Week 8 following first dose: 4
  Number of mice demonstrating full tumor regression at Week 9 following first dose: 4
  Number of mice demonstrating full tumor regression at Week 10 following first dose: 4
  Number of mice demonstrating full tumor regression at Week 11 following first dose: 4/6 and 4
  Number of mice demonstrating full tumor regression at Week 12 following first dose: 4
[1]; [6]
  TGI on Day 70, excluding the outlier: 99.64%
  average tumor size on Day 70, excluding the outlier: 4.89 mm^3
[2]
  side effects based on changes in body weight, survival and gross observations: No obvious side effects
[3]; 1 mg/kg IV Days 0, 7, 14, 21
  BWC (%) Day 70 (body weight change vs Day 0): 8.95%
  Body Weight (g, Mean ± SEM) Day 70: 21.70 ± 0.30 g
  Body Weight (g, Mean ± SEM) Day 84: 21.24 ± 0.26 g
  Drug-related Death: 0
  average body weight increase (%) on Day 84 compared to Day 0: 6.66%
  average body weight increase on Day 70 compared to Day 0: 1.76 g
  average body weight increase on Day 84 compared to Day 0: 1.30 g
[3]; 1 mg/kg IV once on Day 0
  BWC (%) Day 70 (body weight change vs Day 0): 15.09%
  Body Weight (g, Mean ± SEM) Day 70: 22.01 ± 0.50 g
  Body Weight (g, Mean ± SEM) Day 84: 22.06 ± 0.64 g
  Drug-related Death: 0
  average body weight increase (%) on Day 84 compared to Day 0: 12.37%
  average body weight increase on Day 70 compared to Day 0: 2.87 g
  average body weight increase on Day 84 compared to Day 0: 2.92 g
[3]; [7]
  BWC (%) Day 70 (body weight change vs Day 0): 8.89%
  Body Weight (g, Mean ± SEM) Day 70: 21.18 ± 0.49 g
  Body Weight (g, Mean ± SEM) Day 84: 21.31 ± 0.46 g
  Drug-related Death: 0
  average body weight increase (%) on Day 84 compared to Day 0: 10.24%
  average body weight increase on Day 70 compared to Day 0: 1.72 g
  average body weight increase on Day 84 compared to Day 0: 1.85 g
[3]; 2 mg/kg IV once on Day 0
  BWC (%) Day 70 (body weight change vs Day 0): 11.00%
  Body Weight (g, Mean ± SEM) Day 70: 21.63 ± 0.39 g
  Body Weight (g, Mean ± SEM) Day 84: 21.75 ± 0.55 g
  Drug-related Death: 0
  average body weight increase (%) on Day 84 compared to Day 0: 10.84%
  average body weight increase on Day 70 compared to Day 0: 2.14 g
  average body weight increase on Day 84 compared to Day 0: 2.26 g
[3]; 4 mg/kg IV once on Day 0
  BWC (%) Day 70 (body weight change vs Day 0): 10.87%
  Body Weight (g, Mean ± SEM) Day 70: 21.72 ± 0.44 g
  Body Weight (g, Mean ± SEM) Day 84: 20.96 ± 0.55 g
  Drug-related Death: 0
  average body weight increase (%) on Day 84 compared to Day 0: 6.99%
  average body weight increase on Day 70 compared to Day 0: 2.13 g
  average body weight increase on Day 84 compared to Day 0: 1.37 g
[3]; maximum cumulative dose of 4 mg/kg IV (single or split doses)
  tolerability in mice: well tolerated

Reference: US12458818B2, “Anti-trophoblast cell surface antigen 2 (TROP2) antibodies and antibody drug conjugates comprising same” (CSPC MEGALITH BIOPHARMACEUTICAL CO., LTD., priority 2019, dated 2025)
